B1: recombinant HAI-2 (rHAI-2) proteins containing the extracellular region of HAI-2 (domain or fragment)
chain: ADRERSIHDFCLVSKVVGRCRASMPRWWYNVTDGSCQLFVYGGCDGNSNNYLTKEECLKKCATVTENATGDLATSRNAADSSVPSAPRRQDSEDHSSDMFNYEEYCTANAVTGPCRASFPRWYFDVERNSCNNFIYGGCRGNKNSYRSEEACMLRCFRQQENPPLPLGSK
B2: α-2-antiplasmin (natural protein)
chain: NQEQVSPLTLLKLGNQEPGGQTALKSPPGVCSRDPTPEQTHRLARAMMAFTADLFSLVAQTSTCPNLILSPLSVALALSHLALGAQNHTLQRLQQVLHAGSGPCLPHLLSRLCQDLGPGAFRLAARMYLQKGFPIKEDFLEQSEQLFGAKPVSLTGKQEDDLANINQWVKEATEGKIQEFLSGLPEDTVLLLLNAIHFQGFWRNKFDPSLTQRDSFHLDEQFTVPVEMMQARTYPLRWFLLEQPEIQVAHFPFKNNMSFVVLVPTHFEWNVSQVLANLSWDTLHPPLVWERPTKVRLPKLYLKHQMDLVATLSQLGLQELFQAPDLRGISEQSLVVSGVQHQSTLELSEVGVEAAAATSIAMSRMSLSSFSVNRPFLFFIFEDTTGLPLFVGSVRNPNPSAPRELKEQQDSPGNKDFLQSLKGFPRGDKLFGPDLKLVPPMEEDYPQFGSPK

Biological target: human active plasmin (human)
Sequence (P00747 20-580, chain 1 of 2): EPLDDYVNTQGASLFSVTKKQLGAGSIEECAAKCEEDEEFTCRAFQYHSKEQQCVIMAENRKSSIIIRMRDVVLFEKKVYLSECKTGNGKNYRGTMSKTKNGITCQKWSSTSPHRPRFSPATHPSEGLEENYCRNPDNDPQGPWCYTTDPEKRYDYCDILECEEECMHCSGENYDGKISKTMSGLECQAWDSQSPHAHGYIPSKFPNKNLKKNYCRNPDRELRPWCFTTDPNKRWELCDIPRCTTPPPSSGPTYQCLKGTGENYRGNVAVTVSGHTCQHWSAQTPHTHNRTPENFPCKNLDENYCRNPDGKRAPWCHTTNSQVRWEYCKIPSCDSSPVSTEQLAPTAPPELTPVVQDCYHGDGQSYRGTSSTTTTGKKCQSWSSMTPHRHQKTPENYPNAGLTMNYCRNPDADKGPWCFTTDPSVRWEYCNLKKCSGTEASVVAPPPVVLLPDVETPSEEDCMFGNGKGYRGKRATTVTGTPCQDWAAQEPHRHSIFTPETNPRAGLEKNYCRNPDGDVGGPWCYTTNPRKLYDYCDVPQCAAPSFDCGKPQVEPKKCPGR
Sequence (P00747 581-810, chain 2 of 2): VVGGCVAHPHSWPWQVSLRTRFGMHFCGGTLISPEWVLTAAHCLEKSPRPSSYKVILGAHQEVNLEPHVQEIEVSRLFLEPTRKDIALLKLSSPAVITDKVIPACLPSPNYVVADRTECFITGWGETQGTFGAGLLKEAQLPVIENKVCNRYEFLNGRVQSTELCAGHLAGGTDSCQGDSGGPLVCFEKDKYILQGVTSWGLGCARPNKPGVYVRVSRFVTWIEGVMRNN

Binder | inhibition of plasmin activity in the presence of equimolar uPA and plasminogen, ratio of HAI-2 to uPA/plasminogen 1:1 (~20% inhibition) to 10:1 (Supplementary Figure S13A) | inhibition of plasmin activity, high ratio of HAI-2 to plasmin (Supplementary Figure S13B) | inhibition of plasmin activity, low ratio (~40%) to high ratio of α-2-antiplasmin to plasmin (Supplementary Figure S13B)
B1 | 75% | 66% | 
B2 |  |  | > 99%
